Substrate in this data set: O=Cc1ccc([N+](=O)[O-])cc1
Description: purified protein. The note with it: nitromethane 1 M (excess), 3-18 mM aldehyde, 0.3 mg/mL enzyme, 40 °C, 5 min.
Description: Henry reaction, product by HPLC, Michaelis-Menten fit on LmrR (Lactococcal multidrug resistance Regulator)

B1: LmrR (Lactococcal multidrug resistance Regulator) (Lactococcus cremoris subsp. cremoris MG1363) (protein)
chain: MAEIPKEMLRAQTNVILLNVLKQGDNYVYGIIKQVKEASNGEMELNEATLYTIFKRLEKDGIISSYWGDESQGGRRKYYRLTEIGHENMRLAFESWSRVDKIIENLEANKKSEAIK
For B1, the Km came to 9.30 mM, the Vmax came to 1290 µM/min, the kcat came to 0.967 s⁻¹ and the kcat/Km amounted to 104 M⁻¹ s⁻¹.

The values are drawn from paper PMC10992053, “Rationally introducing non-canonical amino acids to enhance catalytic activity of LmrR for Henry reaction” (Bioresources and Bioprocessing, 2024).
